The values that follow come from the nanobody polyreactivity screen of Harvey et al. (2022).

This series in a line: yeast display, Sf9 membrane polyspecificity reagent, FACS + sequencing; frameworks hold sequencing errors. In outline:
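In a synthetic yeast display library (Saccharomyces cerevisiae BJ5465), nanobody expression was induced with galactose for 36–48 hours. FACS gates were set low and high (top ~1%) using anti-HA fluorescence for expression and streptavidin fluorescence for binding of the Sf9 membrane reagent. Each polyreactivity label is drawn from the gate of origin.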
Regarding “QVQLVESGGGLVQAGGSLRLSCAASGGTLWVNTMGWYRQAPGKERELVAAISRRGGSTYYADSVKGRFTISRDNAKNTVYLQKNSLKPEDTAVYYCAKGYSSHYWWAYDSWGQGTQVTVSS”, the “polyreactivity (PSR sort gate)” value is on record as “high polyreactivity”.

On to “QVQLVESGGGLVQAGGSLRLSCAASGHIFFYYTMGWYRPAPGKERELVAGITIGGSTNYADSVKGRFTISRDNAKNTVYLQMNSLKPEDTAVYYCNVVKYVYIYSYWEYYYWGQGTQVTVSS”, for which the “polyreactivity (PSR sort gate)” value is recorded as “low polyreactivity”.

“QVQLVESGGGLVQAGGSLRLSCAASGHIFFYYTMGWYRQAPGKERELVAGITIGGSTNYADSVKGRFTISRDNAKNTVYLQMNSLKPEVTAVYYCARTVYGARSYDYWGQCTQVTVSS”: the “polyreactivity (PSR sort gate)” value was “low polyreactivity”.

For the sequence “QVQLVESGGGLVQAGGSLRLSCAASGHTFAYNAMGWYRQAPGKEREFVAAITWSTDNTYYADSVKGRFTISRDNAKNTVYLQMNTLKPEDTAVYYCAVDVYFYYRHYGYWGQGTQVTVSS”, the “polyreactivity (PSR sort gate)” value is recorded as “low polyreactivity”.

Consider “QVQLVESGGGLVQAGGSLRLSCAASGIFASYAMGWYRQAPGKERELVADITWRGGNTFYADSVKGRFTISRDNAKNTVYLQMNSLKPEDTAVYYCAADYRPYLRYTVRGYGYWGQGTKVTVSS”, for which the “polyreactivity (PSR sort gate)” value is “high polyreactivity”.

Consider “QVQLVESGGGLVQAGGSLRLSCAASGIFFGGYYLGWYRQAPATEMELVAGIRSGGSTYYADSVKGRFTISRDNAKNTVYLQMNSLKPEDTAVYYCAKPYYWGDYSQSDSDYWGQGTQVTVSS”, for which the “polyreactivity (PSR sort gate)” value was “low polyreactivity”.

Take “QVQLVESGGGLVQAGGSLRLSCAASGIFGWYAMGWYRQAPGKEREFVATINWSGGRTYYADSVKGRFTISRDNAKNTVYLQMNSLKPEDTAVYYCAAENYASEYDYWGQGTQVTVSS”: the “polyreactivity (PSR sort gate)” value is given as “low polyreactivity”.

As for “QVQLVESGGGLVQAGGSLRLSCAASGIFSIYAMGRYRQAPGKERELVAAITSGGGRTYYADSVKGRFTISRDNAKNTVYLQMNSLKPEDTAVYYCARVQRGDYDYWGQGTQVTVTS”, the “polyreactivity (PSR sort gate)” value is “high polyreactivity”.

As to “QVQLVESGGGLVQAGGSLRLSCAASGIFSRYAIGWYRQAPGKERELVAAISSGDSTNYADSVKGRFTISRDNAKNTVYLQMNSLKPEDTAVYYCATERSHLATGQGYYYVQTFYYWGQGTQVTVSS”, the “polyreactivity (PSR sort gate)” value is listed as “low polyreactivity”.

On to “QVQLVESGGGLVQAGGSLRLSCAASGIFSRYAMGWYRQAPGKERELVAAISSGGSTYYADSVKGRFTISRDNAKNTVYLQMNSLKPEDTAVYYCAVKQRDKFAGGRNDYWGQGTQVTVSS”, for which the “polyreactivity (PSR sort gate)” value is recorded as “high polyreactivity”.

In the case of “QVQLVESGGGLVQAGGSLRLSCAASGIFTYNAMGWYRQAPGKERELVASITRGGSTNYADSVKGRFTISLDNAKNTVYLQRNSLKPEDTAVYYCAARVRVYSGWLYNYWGQGTQVTVSS”, the “polyreactivity (PSR sort gate)” value was “high polyreactivity”.

Take “QVQLVESGGGLVQAGGSLRLSCAASGIFYRNAMGWYRQAPGKERELVAAISWSGGSTYYADSVKGRFTISRDNAKNSVYLQMNSLKPEDTAFYYCAAVGGRYPSNVVGYYYWGQGTQVTVSS”: the “polyreactivity (PSR sort gate)” value is listed as “high polyreactivity”.

As to “QVQLVESGGGLVQAGGSLRLSCAASGIFYYNAMGWNIQAPGKERELVAAISYSGGRTYYADSVKGRFTISRDNAKNTVYLQMNSLKPEDTAVYYCNAAARYGRLGGDYWGQGTQVTVSS”, the “polyreactivity (PSR sort gate)” value is “high polyreactivity”.

Consider “QVQLVESGGGLVQAGGSLRLSCAASGIGHNAMGWYRQAPGKERELVAAISSSGGRTYYADSVKGRFTISRDNAKNTVYLQMNSLKPEDTAVYYCARRAVYGIFDYWGQGTQVTVSS”, for which the “polyreactivity (PSR sort gate)” value is reported as “high polyreactivity”.

Regarding “QVQLVESGGGLVQAGGSLRLSCAASGIIFAANAMGWYRQAPGKERELVAAISWSGTSTYYADSVKGRFTISRDNAKNTVYLQMNSLNPEDTAVYYCAVDYYLWSGYSYLYEFEYWGQGTQVTVSS”, the “polyreactivity (PSR sort gate)” value is “high polyreactivity”.

Turning to “QVQLVESGGGLVQAGGSLRLSCAASGIIFAANTMGWYRQAPGKDREFVAAISKRGGTTYYADSVKGRFTISRDNAKNTVYLQMNSLKPEDSAVYYCNRRNGWSRGEYWGQGTQVTVSS”, the “polyreactivity (PSR sort gate)” value was “high polyreactivity”.

Regarding “QVQLVESGGGLVQAGGSLRLSCAASGIIFAAYVMGWYRQAPGKERELVAAISKSGGRTYYADSVKGRFTISRDNAKNTVYLQMNSLKREDTAVYYCAASYTYYSIGLGTDVRYGYWGEGTQVTVSS”, the “polyreactivity (PSR sort gate)” value was “high polyreactivity”.

With “QVQLVESGGGLVQAGGSLRLSCAASGIIFAGNAMGWYRQAPGKERELVAAITRSTGSTYYADSVKGRFTISRDNAKNTVYLLMNSLKPEDTEVYYCNAGHFAHHHGYYRSKYDYWGQGTQVTVSS”, the “polyreactivity (PSR sort gate)” value is listed as “low polyreactivity”.

With “QVQLVESGGGLVQAGGSLRLSCAASGIIFASYPMGWYRQAPGKESELVADINVTGGTTYYADTVKGRFTISRDNAKNTVYLQMNSLKPEDTAVYYCAARQSIFYSWTGVEYYYWGQGTQVTVSS”, the “polyreactivity (PSR sort gate)” value is given as “low polyreactivity”.

As for “QVQLVESGGGLVQAGGSLRLSCAASGIIFAYNAMGWYRQAPGKERELVAAISVIAGTTYYADSVKGRFTISRDNAKNTVYLQMNSLKPEDTAVYYCAVDSVQYGGGYERLHELYYWGQGTQVTVSS”, the “polyreactivity (PSR sort gate)” value is recorded as “low polyreactivity”.

Take “QVQLVESGGGLVQAGGSLRLSCAASGIIFAYNAMGWYRQAPGKERELVATITDSGGSTSYADSVKGRFTISRDNAKNTVYLQMNSLKPEDTAVYYCAVLPVYWYWRNYVYLSGYDYWGQGTQVTVSS”: the “polyreactivity (PSR sort gate)” value is on record as “low polyreactivity”.

In the case of “QVQLVESGGGLVQAGGSLRLSCAASGIIFAYNAMGWYRQAPGKEWELVAGITRNDGSTNYADSVKGRFTISRYNAMNTVYLQMNSLKPEDTAVYYCATGGWRWQRNPSYDYWGQGNQVTVSS”, the “polyreactivity (PSR sort gate)” value was “low polyreactivity”.

Regarding “QVQLVESGGGLVQAGGSLRLSCAASGIIFAYYAMGWYRQAPGKERELVAAISWRGGSTYYADSVKGRFTISRDYAKNTVYLQMNSLKPEDTAVYYCAAAYLKKPYDYWGQGTQVTVSS”, the “polyreactivity (PSR sort gate)” value is listed as “high polyreactivity”.

“QVQLVESGGGLVQAGGSLRLSCAASGIIFCRYAMGWYTQAPGKERELVAAISSSGSTYYADSVKGRFTISRDNATNTVYLQMNSLKPEDTAVYYCAAYSYPAGEYDYWGQGTQVTVSS”: the “polyreactivity (PSR sort gate)” value is given as “low polyreactivity”.

In the case of “QVQLVESGGGLVQAGGSLRLSCAASGIIFDAYGMGWYRQAPGKEMELVAAINTVGSTNYADSVKGRFTISRDNAKNTVYLQMNSLKPEDTAVYYCAADSYFYDPYDYWGQGTQVTVSS”, the “polyreactivity (PSR sort gate)” value is “low polyreactivity”.

Take “QVQLVESGGGLVQAGGSLRLSCAASGIIFDDYAMGWYRQAPGKERELVAAITDSGGSTYYADSVKGRFTISRDNAKNTVYLQMNSLKPEDTAVYYCAARTQRRVNRVGYRSNYYYWGQGTQVTVSS”: the “polyreactivity (PSR sort gate)” value is recorded as “low polyreactivity”.

For “QVQLVESGGGLVQAGGSLRLSCAASGIIFDGYAMGWYRQAPGKEREFVAGITWSGGSTYYADSVKGRFTISRDNAKNTVYLQMNSLKPEDTSVYYCAAKYYWYYSYSGIPLFDYWGQGTQVTVSS”, the “polyreactivity (PSR sort gate)” value is “low polyreactivity”.

For the sequence “QVQLVESGGGLVQAGGSLRLSCAASGIIFDGYAMGWYRQAPGKEREFVAVISSSGGTTYYADSVKGRFTISRDNAKNTVYLQMNSLKPEDTAVYYCATLRYSPGWYTRDDYWGQGTQVTVSS”, the “polyreactivity (PSR sort gate)” value is “low polyreactivity”.

As for “QVQLVESGGGLVQAGGSLRLSCAASGIIFDSYALGWYRQAPGKERELVAAITSRGGRTYYAVSVKGRFTISRDNAKNTVYLQMNSLKPEDTAVYYCAARAKYDRRTDGTSGYDYWGQGTQVTVSS”, the “polyreactivity (PSR sort gate)” value is on record as “low polyreactivity”.

Turning to “QVQLVESGGGLVQAGGSLRLSCAASGIIFDSYAMGWYRQAPGKERELVAAITSDSGRTYYADSVKGRFTISRDNAKKTVYLQMNSLKPEDTAVYYCAKRWDGPYDYWGQGTQVTVSS”, the “polyreactivity (PSR sort gate)” value is “low polyreactivity”.
